This note sets out measurements from the NTF2 design screens of Basanta et al. (2020).

The nature of this series: protease stability score; higher = more stable; yeast display proteolysis, trypsin and chymotrypsin.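 Also: relative to predicted unfolded state with 0 unfolded-like and 1 meaning tenfold more protease.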
Sequence “SEEDKWIKDMTHLFLHWFLTGDEEIFNHFADPNVRVQYGDKWRVGRERVSEFNEFVLRELRFKEIRLKNLSTQGEKATSIVRVDVQFDGKEIDIEIRIHIVVVDGVLKQVEIRET” came in with a protease stability score of 0.795. To “SEEDKYAKLVIRLLEEMIRTGDEESSIRLADPHARVNINGKDMHGREEFTKWIRQFDVVRDFELKDSDYQGDFIFVDGVLDGEVGDKRMRTKVEIIIFKFNGKWRTKEVWVR” belongs 1.38; to “SEEDQHIEEALRRISKVIHTGDEDKLEELVDPHVRLDVGDKVFHGWEDFVRFMTELRFHHMHVTHLETQGDKVRVELSLDREQGDKRKEMHAHIVLEKIDGKWVVREVEMR”, 1.35; to “SEEDQLLHHQMETWRHMIHTGDEELLERFLDPTVRIEYDGQEHHGRETAAHLFRELAEKLGIEFEDLEIHETEIQGDKIRVDTILYVDINGRKLVFRTHTVWEKINGRWILREIKIE”, 0.043. “SEEDRDLHESAKLSEEIEDTGDEHMIHKQADPNVRLDYNGREFHGREMFSKMMIEWFTKLGVDHVHRKEMRIQGDWIHLHFEVRVGDKRHEVHVVALKVNGRWLHHSFEVHER” registered a protease stability score of 1.16.

“SEEDRDMEHVINVLRHLMVTGDEEELTKMADPTAYSDVNGVELHGREAFSRIVKLMGVKHVEIRDFTVQGDKVDVDGETRFENHHRFSIIHLRKINGRWYIERMRLE” had a protease stability score of 0.771.

On to “SEEDRDRHKALELIRESSRTGNEELTSRLADPHVRLVFNGRDVHGREEMVRYMHEFGIDHLHIDRLHVQGDKIHIEGSNDWNGVVTELHVLMVKVNGRWRIREVEWR”, for which the protease stability score came out at 1.23. In the case of “SEEDRDVRHFLEVWWHRVQTGDEDSLHELADPRMRVDINGRILHGREHISRFMIELTESFGATPEDFQIEHVDTVGNKVHIKTRIFIRQGNFNLIRDTEMIVLKVDGRWLLTEVRVR” it was 2.6; in that of “SEEDRFAIEVSEELSRAIETGDEDRLRHLLDPNVKVNVGDKTLHGREEYLHYLRELLRDLGVDVIHIEFQDVRFIGDKLVIDGSLDLRVGDKVIEHKITIIIWKFDGRWVSHSEHIH”, 1.25; in that of “SEEDRFLYEFARTILHLFETGNEEIFHKLADPHVRLHVNGVDNVGWERSYKFFHEEVRELRFHTWRIRDHRTFENRAHLDIEVDTEFNGVRLHLKSTLDVVVVNGRLKFFHIKQE”, 0.424. For the sequence “SEEDRILELIARMMFNLWLTGNEEELERLVDPNARSVINGQEVHGMHETKELLRRLKEHIRIDDMRISRIEVYNGRAIVDLSVDGEFNGRRDITRVEIVIYVVDGKVRSIEFHRK”, the protease stability score is 1.78.

For “SEEDRLHEEWIEESFKIWETGDEERFWKMVDPEYLFRLDIDGVHLESHGRENAREHFREQLSRLGIKYLDLHEIHLQGNKAILDVRVNFNGQERHVIIRLLIIDGRIKKREIEIR”, the protease stability score is 1.41. In the case of “SEEDRLLEELLKLYLHLEATGNEDRFAELVDPDARMDFNGREHHGREEIRHHMVKHWKDLGVKHLHIDRFRYFNGVLDVRGHLKVNGREKDVVWILEIIDGRIHEIRHHLH”, the protease stability score amounted to 1.28. To “SEEDRSSREAVEIYIWIIETGDEHLMEEFLDPHVRSHQGEFHSHGREVAHVYVKKFKNLKVRVREVRTQGDKVIIISEMRIGDFRLELTIIIWKYNGKWIVQEVDIK” belongs 1.67; to “SEEDRYDKKMLERLNEAEHTGDWRLFLRQADPDPRTVIGDKELHGWEILEEFLLKIHEQYKGMRFEYRDIDVQGDKIRIEYDLFINGKFTETILIADKVNGKWIIKSHELR”, 0.898. In turn, “SEEDSKAMEMLDEWLKWLLTGNEHIFRTLADPHVRLTIGDKEHVGREHVIRMFHELRIDHFHVHDVRTQGDKAFMSGRMEGTVDGKKEDTDIRIFLVIVNGRIKHIELRIH” came in with a protease stability score of 1.52. To “SEEDTERTERFELMLHSWLTGDEEFWEKNADPNARLKLLVNGRDIRFHGREMVSEAIRKTLDDLGVDHRRIEHKEVQGDKVHIHQKIDVGDKELKVRIVVVVINGRNEMIIVEVI” belongs 2.26. “SEEDTMAKTLTKMEIELLRTGDEDLLWRLADPNVKLHINGRDLHGRETFEEWMKRFLEQVDVLRIEHREIRTAEGHLELDMHVDSYFDGVRFTTRLIVEVIKVDGRWFIRFREEQ” showed a protease stability score of 1.21. In the case of “SEEDVLHHELARIYWRDFVTGDEDSLRRLMDPEAKVNFDGRENHGREFYEEILRLFLEKFRGVRFEEHRSRFIGEFTHIDVRMHIDGKTHSLKVLVTVVNGKVHSIHIQLR” it was 1.26.
